Measured values published in PMC11141937 (JCI Insight, 2024).

Legend:
[1] = molecular target: SARS-CoV-2 Delta S protein ectodomain (SARS-CoV-2 Delta (B.1.617.2), strain); assay: BLI; conditions: both partners purified
[2] = molecular target: SARS-CoV-2 Omicron BA.2 S protein ectodomain (SARS-CoV-2 Omicron BA.2, strain); assay: BLI; conditions: both partners purified
[3] = molecular target: SARS-CoV-2 Delta S protein on S-293T cells (SARS-CoV-2 Delta (B.1.617.2), strain); assay: flow cytometry on cells; conditions: one partner purified
[4] = molecular target: SARS-CoV-2 Omicron BA.1 S protein on S-293T cells (SARS-CoV-2 Omicron BA.1, strain); assay: flow cytometry on cells; conditions: one partner purified
[5] = molecular target: SARS-CoV-2 Omicron BA.2 S protein on S-293T cells (SARS-CoV-2 Omicron BA.2, strain); assay: flow cytometry on cells; conditions: one partner purified
[6] = molecular target: SARS-CoV-2 Omicron BA.4/5 S protein on S-293T cells (SARS-CoV-2 Omicron BA.4/5, strain); assay: flow cytometry on cells; conditions: one partner purified

Measured: binding result

B1: O5C2 mAb (antibody, V domains shown)
VH: EVQLVESGGGLIQPGGSLRLSCAASGIIVSRNYMSWVRQAPGKGLEWVSILYAGGSSFYAEPVQGRFTVSRDNSKNTLFLEMNSLRVEDTAVYYCARDLQWGIDIWGQGAMVTVSS
VL: DIQMTQTPPSLSASVGDRVSISCRASQSTGSWLAWYQQKPGKAPKLLIYKTSSLESGVPSRFSGSGSGTEFTLTISSLQPDDVATYYCQHYDTYSSTFGQGTKVEIK
binds: [1] | [2] | [3] | [4] | [5] | [6]
